Patent US20230295275A1 (FLAGSHIP PIONEERING INNOVATIONS VI, published 2023)

What was measured:
D614 SARS-CoV-2 spike = D614 SARS-CoV-2 spike (SARS-CoV-2, UniProt P0DTC2 14-1208)
[1] = target: soluble G614 HexaPro spike ectodomain (SARS-CoV-2, UniProt P0DTC2 14-1208)

Binder	Kd (D614 SARS-CoV-2 spike) [nM]	Kd [1] [nM]
AB-1 full-length IgG1 (antibody, V domains shown) VH: QMQLVQSGTEVKKPGESLKISCKGSGYGFITVWIGWVRQMPGKGLEWMGIIYPGDSETRYSPSFQGQVTISADKSINTAYLQWSSLKASDTAIYYCAGGSGISTPMDVWGQGTTVTVSS VL: not shown	1.66	3.39
AB-2 full-length IgG1 (antibody, V domains shown) VH: QMQLVQSGTEVKKPGESLKISCKGSGSGTITVWIGWVRQMPGKGLEWMGIIYPGDSETRYSPSFQGQVTISADKSINTAYLQWSSLKASDTAIYYCAGGSGISTPMDVWGQGTTVTVSS VL: not shown	1.48	2.79
AB-3 full-length IgG1 (antibody, V domains shown) VH: QMQLVQSGTEVKKPGESLKISCKGSGSGFITVWIGWVRQMPGKGLEWMGIIYPGDSETRYSPSFQGQVTISADKSINTAYLQWSSLKASDTAIYYCAGGSGISTPMDVWGQGTTVTVSS VL: not shown	0.907	1.74
AB-4 full-length IgG1 (antibody, V domains shown) VH: QMQLVQSGTEVKKPGESLKISCKGSGSGFITYWIGWVRQMPGKGLEWMGIIYPGDSETRYSPSFQGQVTISADKSINTAYLQWSSLKASDTAIYYCAGGSGIHTPMDVWGQGTTVTVSS VL: not shown	1.72	2.71
